Reference: patent publication US6641994B2, “Methods of identifying anti-viral agents” (Pharmacia & Upjohn Company, priority 1999, dated 2003)
Where no end group is shown, it is not given here.

Columns and labels:
CDK2 = molecular target: T1, CDK2 (Homo sapiens, UniProt P20248+P24941); assay type: biochemical
T1 construct: hemagglutinin (HA); made in house; host or cells: Sf9 or High Five insect cells, baculovirus co-infection

cyclin A/CDK2 = molecular target: T2, cyclin A/CDK2 (Homo sapiens, UniProt P20248+P24941); assay type: biochemical
T2 construct: hemagglutinin (HA); made in house; host or cells: Sf9 or High Five insect cells, baculovirus co-infection
T2 sequence (P20248 whole entry, one chain of several): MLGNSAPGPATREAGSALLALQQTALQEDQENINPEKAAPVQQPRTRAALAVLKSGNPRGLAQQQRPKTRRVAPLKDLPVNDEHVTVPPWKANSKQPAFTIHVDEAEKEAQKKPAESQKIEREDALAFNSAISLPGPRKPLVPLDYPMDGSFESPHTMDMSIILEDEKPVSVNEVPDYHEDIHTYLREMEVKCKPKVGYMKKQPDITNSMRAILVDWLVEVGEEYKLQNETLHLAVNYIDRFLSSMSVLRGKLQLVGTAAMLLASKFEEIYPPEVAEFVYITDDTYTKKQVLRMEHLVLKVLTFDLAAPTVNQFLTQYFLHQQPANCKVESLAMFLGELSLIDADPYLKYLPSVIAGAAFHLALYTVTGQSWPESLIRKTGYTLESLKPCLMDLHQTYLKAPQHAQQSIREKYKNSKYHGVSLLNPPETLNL

pRb = molecular target: T3, pRb (Homo sapiens, UniProt P06400); assay: E7 binding assay (GST-E7 on glutathione-agarose beads), pRb
T3 construct: purchased QED Bioscience Inc
T3 sequence (P06400 1-928): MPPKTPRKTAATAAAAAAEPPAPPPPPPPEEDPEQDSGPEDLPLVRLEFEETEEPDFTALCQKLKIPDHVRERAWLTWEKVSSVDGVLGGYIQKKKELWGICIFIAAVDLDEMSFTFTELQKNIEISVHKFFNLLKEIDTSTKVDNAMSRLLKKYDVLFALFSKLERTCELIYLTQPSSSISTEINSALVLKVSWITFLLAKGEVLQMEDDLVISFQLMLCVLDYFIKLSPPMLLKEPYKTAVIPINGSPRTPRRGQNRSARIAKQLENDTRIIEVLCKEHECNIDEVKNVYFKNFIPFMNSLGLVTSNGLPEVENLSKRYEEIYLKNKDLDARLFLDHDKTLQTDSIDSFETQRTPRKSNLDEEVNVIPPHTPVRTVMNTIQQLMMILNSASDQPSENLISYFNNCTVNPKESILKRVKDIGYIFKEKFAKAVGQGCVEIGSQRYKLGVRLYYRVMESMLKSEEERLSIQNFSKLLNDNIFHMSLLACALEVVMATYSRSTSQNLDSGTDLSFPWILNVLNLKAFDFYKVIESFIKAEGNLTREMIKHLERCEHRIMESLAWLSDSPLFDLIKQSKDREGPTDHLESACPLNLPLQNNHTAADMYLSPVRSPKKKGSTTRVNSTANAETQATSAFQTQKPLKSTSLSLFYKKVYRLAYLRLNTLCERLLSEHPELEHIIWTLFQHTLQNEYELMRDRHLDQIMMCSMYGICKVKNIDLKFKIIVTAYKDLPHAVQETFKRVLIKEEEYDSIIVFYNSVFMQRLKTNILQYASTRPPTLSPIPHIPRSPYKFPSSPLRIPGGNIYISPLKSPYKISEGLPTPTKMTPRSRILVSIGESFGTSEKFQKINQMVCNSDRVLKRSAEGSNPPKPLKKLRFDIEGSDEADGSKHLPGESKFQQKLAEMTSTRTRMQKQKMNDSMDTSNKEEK
Procedure: For HPV31E7, the amplification product was subcloned into pGEX-4T-3 previously digested with BamHI, while HPV6b and HPV16 E7 amplification products were subcloned into pGEX-4T-3 previously digested with BamHI and XhoI. Proper orientation was determined using restriction mapping, sequence analysis was carried out using Perkin-Elmer ABI-Prism® technology, and the expression constructs were individually transfected into a JM 109 strain of E. coli. Bacteria in log-growth phase were harvested by centrifugation after a four hour induction with 0.5 mM IPTG at 30° C. […] After extensive washing with PBS, the GST-E7-coupled beads were stored at 4° C. until use. Protein levels were measured using a BioRad protein assay kit, and purified protein preparations were examined by SDS-PAGE followed by Coomassie blue staining and Western blotting. […]
GST-16E7 or GST-31E7 fusion proteins bound to glutathione-agarose beads were incubated with either purified pRb (QED Bioscience Inc.), His-p21, His-p21N, His-p21C, His-p27, His-p27N, His-p27C, or HEK293 cell lysate at 4° C. for two hours in binding buffer containing 20 mM HEPES, pH 7.4, 10 mM KCl, 1 mM EDTA, 1 mM EGTA, 140 mM NaCl, 13% glycerol, 1 mM DTT, and 1× protease inhibitor tablet (Boehringer Mannheim). […] Eluted proteins were separated using 15% SDS-PAGE and the proteins were analyzed by Coomassie blue staining and Western blotting.

T1 sequence (P20248 whole entry, one chain of several): as the sequence (P20248 whole entry, one chain of several) above

## GST-16E7 (16-38): internal HPV16 E7 region, residues 16-38, GST fusion
CDK2
  induced kinase activity, level relative to that by full length E7: 53%

## GST-16E7(1-27): HPV16 E7 truncation, residues 1-27, GST fusion (MHGDTPTLHEYMLDLQPETTDLYCYEQ; also: GST fusion partner left off)
CDK2
  relative kinase activity compared to activity in the presence of full length E7: 28.64%
  relative kinase activity compared to full length E7, repeat experiment: 52%

## GST-E7 (20-48): internal HPV16 E7 region, residues 20-48, GST fusion (TDLYCYEQLNDSSEEEDEIDGPAGQAEPD; also: GST fusion partner left off)
CDK2
  induced kinase activity, level relative to that by full length E7: 33%

## GST-HPV16-E7(39-98): HPV16 E7 amino terminal deletion, residues 39-98, GST fusion (DGPAGQAEPDRAHYNIVTFCCKCDSTLRLCVQSTHVDIRTLEDLLMGTLGIVCPICSQKP; cysteine pairing not given here; also: GST fusion partner left off)
Cyclin A/CDK2
  activation of cyclinA/CDK2, % of the activation activity of full length GST-HPV 16 E7: 28.6%
  activation potential, repeat experiment: 18%
CDK2
  induced kinase activity, level relative to that by full length E7: 18%

## GST: glutathione-S-transferase alone, control for the fusion proteins [reference compound]
Cyclin A/CDK2
  effect on cyclin A/CDK2 histone H1 kinase activity: no effect

## HPV E7(1-15): HPV16 E7 truncation, residues 1-15, GST fusion (MHGDTPTLHEYMLDL; also: GST fusion partner left off)
CDK2
  relative kinase activity compared to activity in the presence of full length E7: 15%

## HPV E7(1-38): HPV16 E7 truncation, residues 1-38, GST fusion (MHGDTPTLHEYMLDLQPETTDLYCYEQLNDSSEEEDEI; also: GST fusion partner left off)
CDK2
  relative kinase activity compared to activity in the presence of full length E7: approximately 72%

## HPV E7(1-48): HPV16 E7 truncation, residues 1-48, GST fusion (MHGDTPTLHEYMLDLQPETTDLYCYEQLNDSSEEEDEIDGPAGQAEPD; also: GST fusion partner left off)
CDK2
  relative kinase activity compared to activity in the presence of full length E7: 73.25%

B1: Δ12; Δ24, 26: E7 with combined point mutations Δ12 and Δ24, 26 (protein, UniProt P03129 1-98, looked up, variant M12* C24* E26*)
Protein E7: MHGDTPTLHEYLDLQPETTDLYYQLNDSSEEEDEIDGPAGQAEPDRAHYNIVTFCCKCDSTLRLCVQSTHVDIRTLEDLLMGTLGIVCPICSQKP
modifications: GST fusion
CDK2
  % Control Activation Exp. 1: 85.2%
  % Control Activation Exp. 2: 93.5%

B2: GST-31E7: HPV31 E7 protein expressed as a GST fusion protein (protein)
chain: MRGETPTLQDYVLDLQPEATDLHCYEQLPDSSDEEDVIDSPAGQAEPDTSNYNIVTFCCQCKSTLRLCVQSTQVDIRILQELLMGSFGIVCPNCSTRL
modifications: left off: a dimerising Fc or GST
pRb; HEK 293 cell lysate
  binding to pRb in HEK 293 cell lysate: bound
pRb; purified pRb, SDS-PAGE, Coomassie and Western blot
  binding to purified pRb: bound
Cyclin A/CDK2
  effect on cyclin A/CDK2 histone H1 kinase activity: significant effect

B3: Δ12; Δ24, 26; Δ31, 32: E7 with combined point mutations Δ12, Δ24, 26 and Δ31, 32 (protein, UniProt P03129 1-98, looked up, variant M12* C24* E26* S31* S32*)
Protein E7: MHGDTPTLHEYLDLQPETTDLYYQLNDEEEDEIDGPAGQAEPDRAHYNIVTFCCKCDSTLRLCVQSTHVDIRTLEDLLMGTLGIVCPICSQKP
modifications: GST fusion
CDK2
  % Control Activation Exp. 2: 83.1%

B4: GST-HPV16-E7(16-98): GST-E7 construct encoding HPV16 amino acids 16-98 (protein)
chain: QPETTDLYCYEQLNDSSEEEDEIDGPAGQAEPDRAHYNIVTFCCKCDSTLRLCVQSTHVDIRTLEDLLMGTLGIVCPICSQKP
modifications: left off: a dimerising Fc or GST
Cyclin A/CDK2
  activation of cyclinA/CDK2, % of the activation activity of full length GST-HPV 16 E7: 53%

B5: GST-HPV16-E7(9-98): GST-E7 construct encoding HPV16 amino acids 9-98 (protein)
chain: HEYMLDLQPETTDLYCYEQLNDSSEEEDEIDGPAGQAEPDRAHYNIVTFCCKCDSTLRLCVQSTHVDIRTLEDLLMGTLGIVCPICSQKP
modifications: left off: a dimerising Fc or GST
Cyclin A/CDK2
  activation of cyclinA/CDK2, % of the activation activity of full length GST-HPV 16 E7: 64%

B6: HPV E7(1-69): HPV16 E7 truncation, residues 1-69, GST fusion (protein)
chain: MHGDTPTLHEYMLDLQPETTDLYCYEQLNDSSEEEDEIDGPAGQAEPDRAHYNIVTFCCKCDSTLRLCV
modifications: also: GST fusion partner left off
notes: HPV16 E7 truncation, residues 1-69, GST fusion
CDK2
  relative kinase activity compared to activity in the presence of full length E7: 82.45%

B7: HPV E7(1-87): HPV16 E7 truncation, residues 1-87, GST fusion (protein)
chain: MHGDTPTLHEYMLDLQPETTDLYCYEQLNDSSEEEDEIDGPAGQAEPDRAHYNIVTFCCKCDSTLRLCVQSTHVDIRTLEDLLMGTL
modifications: left off: a dimerising Fc or GST
notes: HPV16 E7 truncation, residues 1-87, GST fusion
CDK2
  relative kinase activity compared to activity in the presence of full length E7: 76.67%

B8: HPV6b: low risk-derived E7 from HPV6b, expressed as a GST fusion protein (protein)
chain: MHGRHVTLKDIVLDLQPPDPVGLHCYEQLVDSSEDEVDEVDGQDSQPLKQHFQIVTCCCGCDSNVRLVVQCTETDIREVQQLLLGTLNIVCPICAPKT
modifications: left off: a dimerising Fc or GST
CDK2
  activation of CDK2 histone kinase activity: 15.8 fold
